Data published in article doi:10.1101/2022.12.03.518949 (bioRxiv, 2022).

Molecular target: His-tagged SARS-CoV-2 RBD (SARS-CoV-2 Wuhan-Hu-1, UniProt P0DTC2)
Assay: BLI

B1: Fab fragment of THSC20.HVTR26 (Fab, V domains shown)
VH: EVQLVESGGGLVQPGGSLRLSCAASGFTVSSNYMSWVRQAPGKGLEWVSAIYSGDSTYYADSVKGRFTISRHNPKNTLYLQMNSLRAEDTAVYYCARLVGALTNIVVSGDGGAFDIWGQGTMVTVSS
VL: SYELTQPASVSGSPGQSITISCTGTSSDVGSYNLVSWYQQHPGKAPKLMIYEVSKRPSGVSNRFSGSKSGNTASLTISGLQAEDEVDYYCCSYAGSSTWVFGGGTKLTVL
binding result: binds
